Results as given in doi:10.1101/2024.03.11.584335.
Where two headings read alike, the source gives them in different places.

Assays:
[1] = target: RPAcoreΔP,W (minimal trimerization core, domains C, D, E) (human, UniProt P27694;P15927;P35244 438-616;35-174;1-121); test: BLI
[2] = target: T1, RPAcoreΔP (human, UniProt P27694;P15927;P35244 438-616;35-270;1-121); test: BLI
[3] = target: T1, RPAcoreΔP; test: BLI; remark: listed apart in the source
[4] = target: RPAcore;PolαCD (catalytic domain of DNA polymerase alpha) (human;human, UniProt P27694;P15927;P35244;P09884 438-616;1-270;1-121;335-1257, |); test: cryo-EM
RPAcore;PolαCD (catalytic domain of DNA polymerase alpha), sequence (P27694 438-616, chain 1 of 4): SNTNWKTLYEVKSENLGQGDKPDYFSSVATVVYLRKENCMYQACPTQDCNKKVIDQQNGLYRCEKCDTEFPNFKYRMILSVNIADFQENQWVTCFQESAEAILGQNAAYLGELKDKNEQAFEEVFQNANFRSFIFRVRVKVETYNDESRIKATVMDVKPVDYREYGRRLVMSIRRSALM
RPAcore;PolαCD (catalytic domain of DNA polymerase alpha), sequence (P15927 whole entry, chain 2 of 4, the tested form may be a part): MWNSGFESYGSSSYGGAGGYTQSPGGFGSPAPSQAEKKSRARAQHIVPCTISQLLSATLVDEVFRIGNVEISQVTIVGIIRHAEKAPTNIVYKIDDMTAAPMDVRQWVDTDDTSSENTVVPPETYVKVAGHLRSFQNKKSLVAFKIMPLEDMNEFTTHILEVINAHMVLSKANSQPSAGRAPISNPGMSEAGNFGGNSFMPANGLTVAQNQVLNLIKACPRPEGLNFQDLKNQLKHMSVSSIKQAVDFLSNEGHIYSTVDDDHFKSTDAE
RPAcore;PolαCD (catalytic domain of DNA polymerase alpha), sequence (P35244 whole entry, chain 3 of 4, the tested form may be a part): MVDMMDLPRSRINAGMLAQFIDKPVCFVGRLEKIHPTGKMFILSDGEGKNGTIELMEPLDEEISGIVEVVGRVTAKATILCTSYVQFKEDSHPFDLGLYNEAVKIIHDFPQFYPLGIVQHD
RPAcore;PolαCD (catalytic domain of DNA polymerase alpha), sequence (P09884 335-1257, chain 4 of 4): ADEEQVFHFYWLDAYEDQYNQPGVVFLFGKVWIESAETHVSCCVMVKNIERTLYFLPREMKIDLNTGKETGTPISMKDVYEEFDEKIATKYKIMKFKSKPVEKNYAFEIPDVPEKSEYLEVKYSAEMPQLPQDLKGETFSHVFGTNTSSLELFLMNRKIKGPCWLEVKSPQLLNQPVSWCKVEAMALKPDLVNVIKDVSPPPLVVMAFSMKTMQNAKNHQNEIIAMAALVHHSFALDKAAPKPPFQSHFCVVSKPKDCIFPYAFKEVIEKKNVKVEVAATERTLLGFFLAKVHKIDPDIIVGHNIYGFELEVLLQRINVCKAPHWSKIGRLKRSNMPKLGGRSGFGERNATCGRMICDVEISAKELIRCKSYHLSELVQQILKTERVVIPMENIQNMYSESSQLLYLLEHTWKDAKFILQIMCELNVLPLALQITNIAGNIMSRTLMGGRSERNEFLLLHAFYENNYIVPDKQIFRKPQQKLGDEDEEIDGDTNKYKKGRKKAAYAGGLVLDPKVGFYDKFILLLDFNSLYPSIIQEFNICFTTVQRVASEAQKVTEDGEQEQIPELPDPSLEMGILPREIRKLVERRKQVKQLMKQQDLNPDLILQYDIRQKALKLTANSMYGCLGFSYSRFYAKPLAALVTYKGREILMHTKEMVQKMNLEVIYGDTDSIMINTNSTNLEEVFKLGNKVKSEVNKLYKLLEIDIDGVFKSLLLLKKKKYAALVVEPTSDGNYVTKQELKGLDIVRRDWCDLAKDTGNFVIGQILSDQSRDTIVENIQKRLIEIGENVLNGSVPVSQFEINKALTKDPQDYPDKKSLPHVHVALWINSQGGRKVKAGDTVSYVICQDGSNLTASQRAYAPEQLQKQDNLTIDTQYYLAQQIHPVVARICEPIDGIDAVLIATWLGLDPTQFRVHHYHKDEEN

T1 sequence (P27694 438-616, stated change not applied, chain 1 of 3): as the sequence (P27694 438-616, chain 1 of 4) above
T1 sequence (P15927 35-270, stated change not applied, chain 2 of 3): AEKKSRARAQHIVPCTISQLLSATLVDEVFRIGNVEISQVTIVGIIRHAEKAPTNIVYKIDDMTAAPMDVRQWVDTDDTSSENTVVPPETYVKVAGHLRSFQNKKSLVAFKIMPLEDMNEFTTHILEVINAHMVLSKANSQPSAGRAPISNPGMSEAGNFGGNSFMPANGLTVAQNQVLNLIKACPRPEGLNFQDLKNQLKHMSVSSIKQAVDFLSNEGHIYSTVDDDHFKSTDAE
T1 sequence (P35244 whole entry, stated change not applied, chain 3 of 3): as the sequence (P35244 whole entry, chain 3 of 4, the tested form may be a part) above
RPAcoreΔP,W (minimal trimerization core, domains C, D, E), sequence (P27694 438-616, stated change not applied, chain 1 of 3): as the sequence (P27694 438-616, chain 1 of 4) above
RPAcoreΔP,W (minimal trimerization core, domains C, D, E), sequence (P15927 35-174, stated change not applied, chain 2 of 3): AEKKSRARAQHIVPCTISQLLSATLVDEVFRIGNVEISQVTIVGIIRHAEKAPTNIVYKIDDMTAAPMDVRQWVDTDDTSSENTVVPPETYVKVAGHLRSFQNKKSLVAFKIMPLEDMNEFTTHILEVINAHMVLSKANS
RPAcoreΔP,W (minimal trimerization core, domains C, D, E), sequence (P35244 whole entry, stated change not applied, chain 3 of 3): as the sequence (P35244 whole entry, chain 3 of 4, the tested form may be a part) above

B1: T8:P3 template:primer (mixed)
DNA: AATCTAGTAACATAGTATACATAAGCGCTCCAGGC
RNA: GCCUGGAGCGC
modifications: P3 is a chimeric RNA-DNA primer (RNA/DNA boundary not in the material) with 3'-dideoxycytidine
Which Kd [1] does the source give for B1 here?
The Kd was 90.2 ± 4.5 nM.

And the Kd [2]?
Its Kd is 124 ± 15 nM.

And the Kd [3]?
Its Kd is 50.3 ± 6.6 nM.

B2: T9:P4 template:primer (mixed)
DNA: AATCTAGTAACATAGTATACATAGGCGCTCCAGGC
RNA: GCCUGGAGCGC
modifications: P4 primer contains U (RNA-DNA chimera?) and 3'-dideoxycytidine
Does B2 bind [4]?
Result: binds
